# According to the supplement of paper PMC10598134:
# ± gives the standard deviation.
# Experiment: collision cross section of unmodified peptide (TIMS, N2, iRT-aligned); higher = larger / more extended gas-phase ion
# Method in brief: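 Collision cross section was derived from the Mason-Schamp equation. Each value averages 1–3 technical replicates of the most abundant feature per charge state, measured on a timsTOF Pro/HT in dda-PASEF mode (nitrogen, ~2.4 mbar) after a 120-min nanoflow C18 gradient at 60 °C. Synthetic peptide pools (~100 fmol/µL in 2% acetonitrile/0.1% formic acid, iRT standard spiked 1:40) were identified with MaxQuant, and 1/K0 was calibrated with three reference ions and aligned run-wise to the median iRT peptide deviation.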
Sequence,collision cross section (charge state: 2) [Å²],collision cross section (charge state: 3) [Å²]
GQKGEPGLPGHPGK,378.64 ± 1.5,470.96 ± 1.2
GQQGEPGPK,313.75 ± 0.93,–
GRGAAAAGGPQR,344.37 ± 5.2,433.7 ± 4.8
GRGAANDSTQFTVAGR,411.19,473.86 ± 2.3
GRGAPPPPPSR,341.09 ± 1.1,436.88 ± 3.2
GRGGAESHTFK,353.4 ± 0.58,440.9 ± 5.6
GRGGPGPAQR,323.16 ± 0.71,428.92 ± 5.9
GRGLPGPAESLR,364.16 ± 0.25,446.18 ± 17
GRGTGEAEEEYVGPR,410.08 ± 0.96,491.56 ± 0.9
GRGTSQLAEGATAK,389.78 ± 0.35,463.88 ± 3.2
GRGVGSPEPGPTAPYLGR,432.42,517.8 ± 0.62
GRGVGSPEPGPTAPYLGRR,–,516.55
GRGYFEHR,340.02 ± 0.52,409.47 ± 5.3
GSAPPGPVPEGSIR,377.29 ± 0.67,–
GSELQNYFTK,364.76 ± 0.54,–
GSGLGARGSSYGVTSTESYK,471.67,515.78 ± 1.1
GSHGQTPSPGALPLGR,–,463.73 ± 0.22
GSIGFPGFPGANGEKGGR,–,519.37 ± 1.2
GSLEKGSPEDK,350.53 ± 1.5,434.36 ± 3.6
GSLGAQKLANTCFNEIEK,483.18 ± 2.7,511.29 ± 4.4
GSRGFPGEK,330.16 ± 0.23,–
GSYLGGYSAGRGIYSR,455.17,483.36 ± 2.1
GTGRGGGGGGGGGAPR,356.62,435.15 ± 5.4

Sequence,collision cross section (charge state: 2) [Å²],collision cross section (charge state: 3) [Å²]
GTISAPGKVVTAAAQAK,464.56 ± 3.2,518.69 ± 4.3
GTITVSAQELKDNR,437.3 ± 1.6,507.47 ± 4.6
GTPGKPGPR,311.01 ± 0.77,–
GTVPDDAVEALADSLGKK,478 ± 3.1,520.87 ± 1.8
GVEAVGSYAENQR,378.71 ± 0.16,463.38 ± 1.1
GVPRGVHLGSQGLQR,424.25,484.7 ± 1.8
GVQYLNEIK,351.72 ± 0.74,–
GYDVIAQAQSGTGK,388.46 ± 0.16,–
GYGVIFANGNR,361.55 ± 0.6,–
GYLGPEQLPDCLK,401.23 ± 0.16,–
HELQANCYEEVKDR,443.76 ± 2.4,527.87 ± 1.3
HFGPVPPSQGRGR,–,493.79 ± 0.89
HGGSGGRGVSVSSAR,–,479.93 ± 1.3
HGVYNPNK,330.7 ± 0.79,–
HHAAYVNNLNVTEEK,444.13 ± 2.1,494.31 ± 0.87
HHTLRQAPQPQSSLQR,–,502.65 ± 0.69
HIGFVYHPTK,378.19 ± 1.1,450.25 ± 1.7
HLRGHGPQPPLR,396.64,492.83 ± 0.94
HSPTLPEPGGLRLELPLSR,–,583.19
HTLLRAPAPELLPANVAGR,–,530.02 ± 1.9
HVSPVTPPR,327.76 ± 0.64,–
IDLPAENSNSETIIITGKR,488.02,565.88 ± 0.52
